Experimental data from patent EP4467153A1, “CONSTRAINED PEPTIDE INHIBITORS OF LRRK2-FADD INTERACTIONS” (University of Georgia Research Foundation, Inc., priority 2023, dated 2024).
“Also recorded” adds a separate entry of the source. Positions of bridges follow the written chain, without caps; N, C: chain ends. Non-standard residues stand in square brackets, D forms with d. Primed or numbered codes have the meaning given here. FAM = 5(6)-carboxyfluorescein label; S5 = C=CCCC[C@](C)(N)C(=O)O; PEG3′ = PEG3 spacer

Assays:
[1] = target: T1, LRRK2-FADD PPI (Flag G2019S-LRRK2 and V5-FADD) (Homo sapiens, UniProt Q5S007, G2019S); assay: Co-immunoprecipitation of LRRK2-FADD interaction in transfected HEK293T cells; type: cell-based
T1 construct: expressed in transfected cells; host or cells: HEK293T
Method: It was then assessed whether this peptide library (FARM1-FARM5) could disrupt the interaction between over-expressed Flag G2019S-LRRK2 and V5-FADD by co-immunoprecipitation. Flag-LRRK2 was purified on anti-Flag resin and the eluate as well as the protein extract (input) separated by SDS-PAGE, with the membranes probed for V5 (FADD) and Flag (LRRK2). The transfected cells were treated with the indicated peptide (10 µM) for a total of 48 hr prior to collection. […] To minimize the use of primary mouse cortical neuron cultures, FARMS was used in subsequent experiments to examine the potential neuroprotective effects of LRRK2-FADD disruption.
Assessment of LRRK2-FADD interaction. Co-immunoprecipitation was undertaken to determine the effects of the stapled peptides on the LRRK2-FADD PPI, as previously described. Briefly, 10cm plates of HEK293T cells transiently expressing Flag-WT or mutant LRRK2 and V5-FADD (at a 3:1 ratio), and treated with different concentrations of FARM peptides (as indicated in the Figure legends), were washed in PBS and lysed in co-IP buffer (20mM HEPES, pH7.4; 150 mM NaCl; 0.1% NP40; 2 mM EGTA; 2 mM MgCl2; 10% glycerol, pH 7.2; protease and phosphatase cocktail [Agilent Technologies]) for 30 min on ice followed by 15 strokes with a Dounce glass homogenizer, and centrifugation at 13000 rpm for 15 min to remove cellular debris. Following pre-clearing with IgG-coupled beads, 40 µl of washed anti-Flag resin (Sigma-Aldrich) per mg of protein was added and the samples incubated under rotation overnight at 4°C. The following morning, the beads were centrifuged and washed a total of 5X with coIP buffer, before elution in 2X SDS sample buffer at 95°C for 10 min. The eluate (and input) was separated by SDS-PAGE and membranes probed with anti-Flag (LRRK2) and V5 (FADD).

HEK293T cells = assay: Cellular uptake of FAM-labeled peptides in HEK293T cells (fluorescence imaging); type: cell-based
Source text: • FIGs. 1A-1D depict the design and structure of constrained peptides targeting the LRRK2-FADD PPI. (FIG. 1A) Structural representation of the region of the LRRK2 ARM domain in which the FADD-binding motif is located, shown with the fragment of the FADD death domain that binds LRRK2. (FIG. 1B) Highlight schematic of the relevant binding domains within LRRK2 and FADD, and the corresponding amino acid sequence that mediates this PPI is highlighted. (FIG. 1C) Schematic representation of the solid phase peptide synthesis, highlighting the placement of the synthetic amino acids for the placement of the peptide staple. (FIG. 1D) Sequences of the five stapled peptides synthesized, with the position of the synthetic residues in each peptide indicated by an asterisk. • FIGs. 2A-2B depict the cellular uptake of stapled vs. native peptides. (FIG. 2A) HEK293T cells were incubated with 5 µM of non-stapled control or constrained FARMS for a period of 24 hr. […] In the eluate, a dose-dependent reduction of FADD was detected with increasing concentrations of FARMS. […] (FIG. 4B) The percentage of transfected neurons with apoptotic nuclear features was determined in a blinded fashion. […] (FIG. 5B) The band intensities in FIG. 5A were quantified using Image J (n=2). […] (FIG. 5C) Phosphorylation of endogenous RablO in HEK293T cells by over-expressed WT or R1441C-LRRK2 was determined by Western blot, as in FIG. 5A. […]

T1 sequence (Q5S007 whole entry G2019S): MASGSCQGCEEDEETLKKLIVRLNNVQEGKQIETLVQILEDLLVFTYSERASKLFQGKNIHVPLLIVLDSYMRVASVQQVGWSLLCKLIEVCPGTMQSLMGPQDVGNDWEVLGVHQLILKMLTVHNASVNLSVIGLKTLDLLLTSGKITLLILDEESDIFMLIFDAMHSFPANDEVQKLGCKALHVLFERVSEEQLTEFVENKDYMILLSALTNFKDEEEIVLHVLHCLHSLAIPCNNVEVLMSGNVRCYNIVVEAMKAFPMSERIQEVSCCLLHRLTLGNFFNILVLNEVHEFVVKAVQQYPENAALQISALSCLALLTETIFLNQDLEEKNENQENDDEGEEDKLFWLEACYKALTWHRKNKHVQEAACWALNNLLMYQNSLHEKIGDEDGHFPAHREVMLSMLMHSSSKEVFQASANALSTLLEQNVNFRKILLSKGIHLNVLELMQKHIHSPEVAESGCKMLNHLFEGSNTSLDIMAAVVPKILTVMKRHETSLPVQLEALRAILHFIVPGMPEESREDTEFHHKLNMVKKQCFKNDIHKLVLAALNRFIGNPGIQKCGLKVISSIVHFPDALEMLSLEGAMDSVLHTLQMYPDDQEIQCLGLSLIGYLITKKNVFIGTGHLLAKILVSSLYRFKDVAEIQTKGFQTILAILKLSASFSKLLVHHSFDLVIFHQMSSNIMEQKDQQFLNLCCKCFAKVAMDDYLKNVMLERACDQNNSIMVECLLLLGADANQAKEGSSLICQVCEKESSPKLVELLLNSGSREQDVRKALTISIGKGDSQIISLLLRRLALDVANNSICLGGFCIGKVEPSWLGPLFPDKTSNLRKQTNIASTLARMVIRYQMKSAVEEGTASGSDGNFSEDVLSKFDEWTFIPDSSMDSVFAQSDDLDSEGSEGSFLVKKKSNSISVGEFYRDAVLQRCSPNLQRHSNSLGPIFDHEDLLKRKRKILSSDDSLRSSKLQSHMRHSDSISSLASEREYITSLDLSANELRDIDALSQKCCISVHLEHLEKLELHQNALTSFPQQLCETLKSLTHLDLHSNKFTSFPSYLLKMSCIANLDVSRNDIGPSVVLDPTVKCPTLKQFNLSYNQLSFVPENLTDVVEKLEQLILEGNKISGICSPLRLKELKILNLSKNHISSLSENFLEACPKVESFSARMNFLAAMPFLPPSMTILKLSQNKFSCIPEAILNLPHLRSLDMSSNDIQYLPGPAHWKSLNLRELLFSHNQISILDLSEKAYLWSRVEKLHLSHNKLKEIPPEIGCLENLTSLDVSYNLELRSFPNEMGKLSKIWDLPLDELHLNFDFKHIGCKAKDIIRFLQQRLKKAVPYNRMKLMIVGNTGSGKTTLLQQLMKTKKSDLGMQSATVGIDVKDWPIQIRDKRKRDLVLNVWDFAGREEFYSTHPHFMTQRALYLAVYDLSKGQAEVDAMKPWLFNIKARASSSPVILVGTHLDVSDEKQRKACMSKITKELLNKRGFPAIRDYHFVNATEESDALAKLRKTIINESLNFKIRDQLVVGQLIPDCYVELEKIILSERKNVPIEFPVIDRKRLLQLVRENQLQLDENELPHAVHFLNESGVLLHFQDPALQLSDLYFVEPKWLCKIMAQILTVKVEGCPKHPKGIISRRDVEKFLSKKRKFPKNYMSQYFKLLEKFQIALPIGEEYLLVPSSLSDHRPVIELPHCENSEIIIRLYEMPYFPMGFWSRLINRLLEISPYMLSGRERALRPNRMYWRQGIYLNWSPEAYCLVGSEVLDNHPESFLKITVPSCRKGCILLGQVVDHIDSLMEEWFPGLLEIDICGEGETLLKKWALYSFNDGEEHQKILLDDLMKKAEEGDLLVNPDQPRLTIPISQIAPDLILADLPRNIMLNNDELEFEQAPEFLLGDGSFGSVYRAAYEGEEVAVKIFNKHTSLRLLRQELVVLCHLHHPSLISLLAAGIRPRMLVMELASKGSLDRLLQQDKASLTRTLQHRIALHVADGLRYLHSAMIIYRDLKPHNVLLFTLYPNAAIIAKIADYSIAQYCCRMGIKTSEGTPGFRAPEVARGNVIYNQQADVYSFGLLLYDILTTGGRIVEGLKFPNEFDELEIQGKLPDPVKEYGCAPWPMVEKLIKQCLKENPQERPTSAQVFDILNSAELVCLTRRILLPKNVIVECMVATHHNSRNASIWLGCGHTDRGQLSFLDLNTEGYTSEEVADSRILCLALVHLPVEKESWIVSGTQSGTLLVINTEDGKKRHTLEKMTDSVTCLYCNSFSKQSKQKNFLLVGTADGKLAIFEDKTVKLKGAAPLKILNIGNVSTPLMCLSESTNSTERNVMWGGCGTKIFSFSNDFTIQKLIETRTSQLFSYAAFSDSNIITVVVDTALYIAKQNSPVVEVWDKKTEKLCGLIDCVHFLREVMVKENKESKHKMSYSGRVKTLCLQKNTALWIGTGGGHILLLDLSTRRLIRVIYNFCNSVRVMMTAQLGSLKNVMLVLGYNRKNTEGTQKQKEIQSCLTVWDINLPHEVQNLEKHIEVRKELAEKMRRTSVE

FARM5: FAM-labeled hydrocarbon-stapled FADD Armadillo domain peptide; mass fits SEQ ID NO. 6 KVADLVQEVQQAXDLQXRSK ({FAM-PEG3′}-KVADLVQEVQQA[S5]DLQ[S5]RSK-NH2; staple 13-17; also: FAM label, optionally 5(6)FAM-PEG3 on N-terminal lysine) [FAM-labeled hydrocarbon-stapled FADD Armadillo domain peptide; 6 …XDLQXRSK]
amount of FADD that co-purified with G2019S-LRRK2 (LRRK2-FADD interaction) ([1]; 10 µM, 48 hr, normalized to immunoprecipitated Flag-LRRK2, listed as FARMS): greatest, and most consistent, reduction; also recorded: reduced the interaction between LRRK2 and FADD | dose-dependency of the disruption of the LRRK2-FADD PPI ([1]; 0.1 to 10 µM, 24hr): progressive reduction in the LRRK2-FADD PPI with increasing doses | cellular uptake (permeation of cells) (HEK293T cells; 5 µM FAM-labeled peptide, 24 hr): clear diffuse fluorescent signal along with a few visible puncta was observed throughout cells | dose-dependency of uptake of FAM-labeled peptide (HEK293T cells; 0.1 or 10 µM, 24hr): dose-dependent
